Biological target: Gallus gallus laforin (Gallus gallus) (UniProt Q5ZL46)
Assay: SEC; first pass over a HiLoad 16/60 Superdex 200 column after IMAC and tag removal; buffer C (20 mM Tris/HCl pH 7.5, 100 mM NaCl, 2 mM DTT); multimer peak, dimer and monomer species seen

stoichiometry N: 2
Substance: Gallus gallus laforin (from UniProt Q5ZL46 1-319) (enzyme)

From article PMC4234410
